Experiment [1] concerns the target T1, human FcγR2A 131R (human, UniProt P12318 34-217).
T1 construct: extracellular domain
T1 sequence (looked up): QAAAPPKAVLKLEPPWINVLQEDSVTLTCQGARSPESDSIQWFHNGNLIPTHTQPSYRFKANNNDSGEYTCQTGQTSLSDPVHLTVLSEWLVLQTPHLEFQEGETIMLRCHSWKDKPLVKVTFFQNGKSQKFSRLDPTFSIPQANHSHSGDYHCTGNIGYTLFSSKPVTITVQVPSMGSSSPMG
Briefly: SPR 37C, steady state.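 Also: fc variants captured on chip-bound human BTLA ectodomain, recombinant FcγR ectodomains injected as analyte at varied concentrations, double-referenced equilibrium binding fitted to Langmuir model.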
Experimental: (§1) For the low affinity FcγRs (FcγR2A, FcγR2B, FcγR3A and FcγR3B) the interactions were assessed by surface plasmon resonance with the recombinantly expressed FcRs (extracellular domains only) as analyte. Briefly, recombinant human BTLA extracellular domain (BTLA^K31-R151) was covalently immobilised to both flow cells of all channels of a CMS Series S sensor chip using the GE Healthcare Amine coupling kit. The 2.8.6 Fc variant to be assessed was then captured (approx. 500-1000 response units) in flow cell 2 of each channel. Steady state affinity analysis was then performed by injecting varying concentrations of FcR in multiple cycles and measuring equilibrium binding. Double referencing was used (subtracting the signal in the reference Fc1 and also subtracting the signal from a blank zero concentration injection). KDs were calculated from the Langmuir curves (plotting equilibrium binding against analyte concentration to determine the concentration required for half maximal binding).

In experiment [2] the target is T2, human FcγR2A 131H (human, UniProt P12318 34-217).
T2 construct: extracellular domain
T2 sequence (looked up): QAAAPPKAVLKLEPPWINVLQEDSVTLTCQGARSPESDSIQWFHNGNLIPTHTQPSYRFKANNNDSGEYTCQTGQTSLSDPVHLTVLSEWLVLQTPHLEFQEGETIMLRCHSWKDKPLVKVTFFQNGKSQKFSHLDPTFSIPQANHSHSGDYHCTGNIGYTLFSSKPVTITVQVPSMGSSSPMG
Briefly: SPR 37C, steady state.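 Also: fc variants captured on chip-bound human BTLA ectodomain, recombinant FcγR ectodomains injected as analyte at varied concentrations, double-referenced equilibrium binding fitted to Langmuir model.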
Experimental: as §1

For experiment [3], the target named is T3, human FcγR2B (human, UniProt P31994 43-217).
T3 construct: extracellular domain; also called hFcγR2B; CD32B
T3 sequence (looked up): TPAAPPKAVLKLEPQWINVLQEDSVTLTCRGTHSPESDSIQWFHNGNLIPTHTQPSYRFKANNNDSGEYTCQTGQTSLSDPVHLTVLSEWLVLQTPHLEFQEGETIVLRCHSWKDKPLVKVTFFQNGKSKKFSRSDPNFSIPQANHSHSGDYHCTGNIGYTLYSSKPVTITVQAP
In words: SPR 37C, steady state.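 Also: fc variants captured on chip-bound human BTLA ectodomain, recombinant FcγR ectodomains injected as analyte at varied concentrations, double-referenced equilibrium binding fitted to Langmuir model.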
Experimental: as §1

Experiment [4] concerns the target T4, human FcγR3A 158F (human, UniProt P08637 17-208).
T4 construct: extracellular domain
In words: SPR 37C, steady state.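 Also: fc variants captured on chip-bound human BTLA ectodomain, recombinant FcγR ectodomains injected as analyte at varied concentrations, double-referenced equilibrium binding fitted to Langmuir model.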
Experimental: as §1

Experiment [5] concerns the target T5, human FcγR3A 158V (human, UniProt P08637 17-208).
T5 construct: extracellular domain
In words: SPR 37C, steady state.
Experimental: as §1

Experiment [6] addresses T6, human FcγR3B (human, UniProt O75015 17-200, limits assumed).
T6 construct: extracellular domain; also called CD16B
In words: SPR 37C, steady state; hIgG1 D265A A330R Fc variant.
Experimental: as §1

Experiment [7] addresses T7, human FcγR1A (human, UniProt P12314 16-288, biotinylated).
T7 construct: bought; also called CD64A
Briefly: SPR 37C, kinetic; hIgG1 K322A Fc variant.
Experimental: (§2) For the high affinity FcR interactions (FcγR1A, and also FcRn assessed at pH6.0) the binding was assessed in a kinetic analysis with antibody as analyte. […] Reference flow cell 1 was left empty in all channels. Purified antibody was then injected at a single concentration and on/off rates calculated by curve fitting on BiaEvaluation software.

In experiment [8] the target is T2, human FcγR2A 131H. Briefly: SPR 37C, steady state; hIgG1 K322A Fc variant.
Experimental: as §1
The target of experiment [9] is T3, human FcγR2B. Briefly: SPR 37C, steady state; hIgG1 K322A Fc variant.
Experimental: as §1
Experiment [10] addresses T4, human FcγR3A 158F. In words: SPR 37C, steady state; hIgG1 K322A Fc variant.
Experimental: as §1
Experiment [11] has as its target T5, human FcγR3A 158V. In words: SPR 37C, steady state; hIgG1 K322A Fc variant.
Experimental: as §1
The target in experiment [12] is T6, human FcγR3B. In words: SPR 37C, steady state; hIgG1 K322A Fc variant.
Experimental: as §1
Experiment [13] concerns the target T8, human FcRn (human, UniProt P55899 24-297; P61769 21-119, limits assumed, biotinylated).
T8 construct: bought; also called FcRn pH6
In words: SPR, pH6.0. Background: SPR reads the build-up and loss of mass on a sensor chip optically.

Experiment [14] deals with T7, human FcγR1A. Briefly: SPR 37C, kinetic.
Experimental: as §2
Experiment [15] concerns the target T6, human FcγR3B. In words: SPR 37C, steady state.
Experimental: as §1
The target in experiment [16] is T3, human FcγR2B. In words: SPR 37C, steady state; hIgG1 D265A G236D A330R Fc variant.
Experimental: (§3) For the low affinity FcγRs (FcγR2A, FcγR2B, FcγR3A and FcγR3B) the interactions were assessed by surface plasmon resonance with the recombinantly expressed FcRs (extracellular domains only) as analyte. […] The 2.8.6 Fc variant to be assessed was then captured (approx. 500-1000 response units) in flow cell 2 of each channel. Steady state affinity analysis was then performed by injecting varying concentrations of FcR in multiple cycles and measuring equilibrium binding. Double referencing was used (subtracting the signal in the reference Fc1 and also subtracting the signal from a blank zero concentration injection). KDs were calculated from the Langmuir curves (plotting equilibrium binding against analyte concentration to determine the concentration required for half maximal binding).
The target of experiment [17] is T5, human FcγR3A 158V. In words: SPR 37C, steady state; hIgG1 D265A G236D S267E Fc variant.
Experimental: as §3
For experiment [18], the target named is T1, human FcγR2A 131R. In words: SPR 37C, steady state; hIgG1 D265A P238D Fc variant.
Experimental: as §1
Experiment [19] has as its target T2, human FcγR2A 131H. The experiment is described as above.
Experimental: as §1
The target of experiment [20] is T3, human FcγR2B. The description is as above.
Experimental: as §1
For experiment [21], the target named is T7, human FcγR1A. In words: SPR 37C, kinetic; hIgG1 D265A S267E Fc variant.
Experimental: as §2
Experiment [22] deals with T3, human FcγR2B. Briefly: SPR 37C, steady state; hIgG1 D265A G236D Fc variant.
Experimental: as §1

T6 sequence (O75015 17-200 limits assumed): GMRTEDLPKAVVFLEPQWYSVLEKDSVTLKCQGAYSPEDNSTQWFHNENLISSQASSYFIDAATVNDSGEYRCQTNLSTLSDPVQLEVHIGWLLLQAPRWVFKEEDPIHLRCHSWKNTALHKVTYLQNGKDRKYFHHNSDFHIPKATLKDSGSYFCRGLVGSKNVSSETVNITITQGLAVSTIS
T4 sequence (P08637 17-208): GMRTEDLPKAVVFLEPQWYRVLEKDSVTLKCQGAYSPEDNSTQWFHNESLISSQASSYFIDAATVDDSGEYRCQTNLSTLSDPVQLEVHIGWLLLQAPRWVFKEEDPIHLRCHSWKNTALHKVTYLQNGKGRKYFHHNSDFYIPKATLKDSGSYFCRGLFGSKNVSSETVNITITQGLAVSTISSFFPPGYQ
T5 sequence (P08637 17-208 F176V): as the sequence (P08637 17-208) above, with F160V counted along it
T8 sequence (P55899 24-297 limits assumed, chain 1 of 2): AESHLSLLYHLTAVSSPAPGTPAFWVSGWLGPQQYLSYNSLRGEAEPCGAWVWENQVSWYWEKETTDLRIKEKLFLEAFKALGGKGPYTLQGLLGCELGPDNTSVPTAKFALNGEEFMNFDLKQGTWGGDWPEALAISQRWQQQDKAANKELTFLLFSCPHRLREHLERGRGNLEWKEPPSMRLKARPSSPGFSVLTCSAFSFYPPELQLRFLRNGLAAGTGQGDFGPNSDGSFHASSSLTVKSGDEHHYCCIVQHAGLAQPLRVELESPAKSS
T8 sequence (P61769 21-119 limits assumed, chain 2 of 2): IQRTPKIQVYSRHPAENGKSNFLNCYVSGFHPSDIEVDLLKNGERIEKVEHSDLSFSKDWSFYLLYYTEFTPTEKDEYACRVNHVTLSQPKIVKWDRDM
T7 sequence (P12314 16-288): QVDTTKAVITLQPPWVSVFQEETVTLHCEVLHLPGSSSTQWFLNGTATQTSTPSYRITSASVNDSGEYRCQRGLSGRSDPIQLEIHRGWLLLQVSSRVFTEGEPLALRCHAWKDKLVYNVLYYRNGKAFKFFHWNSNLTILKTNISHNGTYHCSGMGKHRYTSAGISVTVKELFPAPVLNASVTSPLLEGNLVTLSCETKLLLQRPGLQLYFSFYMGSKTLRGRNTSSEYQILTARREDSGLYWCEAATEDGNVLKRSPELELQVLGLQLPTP

B1: humanised 2.8.6 hIgG1 D265A A330R (antibody)
heavy: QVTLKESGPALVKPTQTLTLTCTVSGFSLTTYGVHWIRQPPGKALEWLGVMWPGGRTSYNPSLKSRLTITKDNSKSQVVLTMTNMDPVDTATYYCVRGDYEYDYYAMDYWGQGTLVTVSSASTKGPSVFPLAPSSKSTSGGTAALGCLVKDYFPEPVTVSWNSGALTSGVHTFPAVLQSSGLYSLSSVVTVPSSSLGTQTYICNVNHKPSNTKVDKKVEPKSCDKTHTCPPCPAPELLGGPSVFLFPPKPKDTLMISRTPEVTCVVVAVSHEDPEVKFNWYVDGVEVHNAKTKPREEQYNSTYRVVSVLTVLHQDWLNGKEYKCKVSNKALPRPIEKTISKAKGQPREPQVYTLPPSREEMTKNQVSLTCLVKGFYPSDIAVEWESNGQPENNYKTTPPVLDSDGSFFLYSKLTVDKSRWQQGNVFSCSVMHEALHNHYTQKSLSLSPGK
light: EIVLTQSPATLSLSPGERATLSCRASSSVSYMHWYQQKPGQAPRPLIYATSNRATGIPARFSGSGSGTDYTLTISSLEPEDFAVYYCHQWSSNPYTFGQGTKLEIKRTVAAPSVFIFPPSDEQLKSGTASVVCLLNNFYPREAKVQWKVDNALQSGNSQESVTEQDSKDSTYSLSSTLTLSKADYEKHKVYACEVTHQGLSSPVTKSFNRGEC
notes: Fc variant with the variable domains of humanised 2.8.6; copies: 2 + 2
What is called Kd is the constant that tells how readily two partners part at equilibrium. Read a high Kd as weaker binding. As to B1, the Kd is 67 µM in [1], 39.4 µM in experiment [2], 347 µM in [3] and 9100 µM in experiment [6]. Moreover, the binding result in [4] and in experiment [5] was “no binding” throughout.

B2: humanised 2.8.6 hIgG1 K322A (antibody)
heavy: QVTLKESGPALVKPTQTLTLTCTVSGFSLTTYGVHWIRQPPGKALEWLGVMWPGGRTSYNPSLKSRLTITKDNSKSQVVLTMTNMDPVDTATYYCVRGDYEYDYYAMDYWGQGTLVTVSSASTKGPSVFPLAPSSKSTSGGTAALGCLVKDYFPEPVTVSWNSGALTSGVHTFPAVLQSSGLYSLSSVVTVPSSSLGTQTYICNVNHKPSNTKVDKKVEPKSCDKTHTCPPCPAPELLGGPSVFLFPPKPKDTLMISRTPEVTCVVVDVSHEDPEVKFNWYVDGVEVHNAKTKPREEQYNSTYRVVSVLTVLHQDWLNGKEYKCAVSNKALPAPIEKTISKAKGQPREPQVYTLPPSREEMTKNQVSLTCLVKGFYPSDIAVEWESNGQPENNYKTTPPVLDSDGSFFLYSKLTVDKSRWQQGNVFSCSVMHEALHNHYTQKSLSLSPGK
light: EIVLTQSPATLSLSPGERATLSCRASSSVSYMHWYQQKPGQAPRPLIYATSNRATGIPARFSGSGSGTDYTLTISSLEPEDFAVYYCHQWSSNPYTFGQGTKLEIKRTVAAPSVFIFPPSDEQLKSGTASVVCLLNNFYPREAKVQWKVDNALQSGNSQESVTEQDSKDSTYSLSSTLTLSKADYEKHKVYACEVTHQGLSSPVTKSFNRGEC
notes: as for B1
As for B2, the Kd in [7] is 0.0052 µM; in experiment [8], 4.6 µM; in experiment [9], 11 µM; in experiment [10], 5.75 µM; in [11], 2.18 µM; in [12] it was 11.9 µM.

B3: humanised 2.8.6 hIgG1 D265A G236D A330R (antibody)
heavy: QVTLKESGPALVKPTQTLTLTCTVSGFSLTTYGVHWIRQPPGKALEWLGVMWPGGRTSYNPSLKSRLTITKDNSKSQVVLTMTNMDPVDTATYYCVRGDYEYDYYAMDYWGQGTLVTVSSASTKGPSVFPLAPSSKSTSGGTAALGCLVKDYFPEPVTVSWNSGALTSGVHTFPAVLQSSGLYSLSSVVTVPSSSLGTQTYICNVNHKPSNTKVDKKVEPKSCDKTHTCPPCPAPELLDGPSVFLFPPKPKDTLMISRTPEVTCVVVAVSHEDPEVKFNWYVDGVEVHNAKTKPREEQYNSTYRVVSVLTVLHQDWLNGKEYKCKVSNKALPRPIEKTISKAKGQPREPQVYTLPPSREEMTKNQVSLTCLVKGFYPSDIAVEWESNGQPENNYKTTPPVLDSDGSFFLYSKLTVDKSRWQQGNVFSCSVMHEALHNHYTQKSLSLSPGK
light: EIVLTQSPATLSLSPGERATLSCRASSSVSYMHWYQQKPGQAPRPLIYATSNRATGIPARFSGSGSGTDYTLTISSLEPEDFAVYYCHQWSSNPYTFGQGTKLEIKRTVAAPSVFIFPPSDEQLKSGTASVVCLLNNFYPREAKVQWKVDNALQSGNSQESVTEQDSKDSTYSLSSTLTLSKADYEKHKVYACEVTHQGLSSPVTKSFNRGEC
notes: as for B1
With B3, in [13], the “avidity (FcRn pH6)” value is 14 nM. Moreover, the binding result in experiment [14], in [4], in [5] and in experiment [15] was “no binding” each time. For the same molecule, the Kd is 91.8 µM in [1], 91.3 µM in experiment [2] and 398 µM in [16].

B4: humanised 2.8.6 hIgG1 D265A G236D S267E (antibody)
heavy: QVTLKESGPALVKPTQTLTLTCTVSGFSLTTYGVHWIRQPPGKALEWLGVMWPGGRTSYNPSLKSRLTITKDNSKSQVVLTMTNMDPVDTATYYCVRGDYEYDYYAMDYWGQGTLVTVSSASTKGPSVFPLAPSSKSTSGGTAALGCLVKDYFPEPVTVSWNSGALTSGVHTFPAVLQSSGLYSLSSVVTVPSSSLGTQTYICNVNHKPSNTKVDKKVEPKSCDKTHTCPPCPAPELLDGPSVFLFPPKPKDTLMISRTPEVTCVVVAVEHEDPEVKFNWYVDGVEVHNAKTKPREEQYNSTYRVVSVLTVLHQDWLNGKEYKCKVSNKALPAPIEKTISKAKGQPREPQVYTLPPSREEMTKNQVSLTCLVKGFYPSDIAVEWESNGQPENNYKTTPPVLDSDGSFFLYSKLTVDKSRWQQGNVFSCSVMHEALHNHYTQKSLSLSPGK
light: EIVLTQSPATLSLSPGERATLSCRASSSVSYMHWYQQKPGQAPRPLIYATSNRATGIPARFSGSGSGTDYTLTISSLEPEDFAVYYCHQWSSNPYTFGQGTKLEIKRTVAAPSVFIFPPSDEQLKSGTASVVCLLNNFYPREAKVQWKVDNALQSGNSQESVTEQDSKDSTYSLSSTLTLSKADYEKHKVYACEVTHQGLSSPVTKSFNRGEC
notes: as for B1
Take B4: the “avidity (FcRn pH6)” value in experiment [13] came to 18.7 nM. Moreover, the binding result in experiment [14], in experiment [2], in [4] and in experiment [15] was “no binding” throughout. Further, the Kd in experiment [1] is 61.8 µM; in experiment [3], 113 µM; in experiment [17], 1650 µM.

B5: humanised 2.8.6 hIgG1 D265A P238D (antibody)
heavy: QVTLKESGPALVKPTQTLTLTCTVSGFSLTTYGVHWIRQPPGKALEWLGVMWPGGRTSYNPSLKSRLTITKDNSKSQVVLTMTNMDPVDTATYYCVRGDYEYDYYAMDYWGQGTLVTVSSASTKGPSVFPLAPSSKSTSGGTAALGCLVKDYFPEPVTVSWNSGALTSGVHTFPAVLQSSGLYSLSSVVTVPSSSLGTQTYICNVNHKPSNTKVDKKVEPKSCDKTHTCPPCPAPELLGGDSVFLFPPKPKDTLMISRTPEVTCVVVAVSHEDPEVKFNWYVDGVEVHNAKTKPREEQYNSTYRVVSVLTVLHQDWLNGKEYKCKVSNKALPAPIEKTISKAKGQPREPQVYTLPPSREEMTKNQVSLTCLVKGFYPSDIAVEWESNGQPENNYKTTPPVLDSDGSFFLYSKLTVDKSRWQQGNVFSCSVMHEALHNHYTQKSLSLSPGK
light: EIVLTQSPATLSLSPGERATLSCRASSSVSYMHWYQQKPGQAPRPLIYATSNRATGIPARFSGSGSGTDYTLTISSLEPEDFAVYYCHQWSSNPYTFGQGTKLEIKRTVAAPSVFIFPPSDEQLKSGTASVVCLLNNFYPREAKVQWKVDNALQSGNSQESVTEQDSKDSTYSLSSTLTLSKADYEKHKVYACEVTHQGLSSPVTKSFNRGEC
notes: as for B1
Regarding B5, the binding result in [4], in [5] and in [15] was “no binding” throughout. In addition, the Kd worked out at 348 µM in experiment [18], 4590 µM in experiment [19] and 684 µM in [20].

B6: humanised 2.8.6 hIgG1 D265A S267E (antibody)
heavy: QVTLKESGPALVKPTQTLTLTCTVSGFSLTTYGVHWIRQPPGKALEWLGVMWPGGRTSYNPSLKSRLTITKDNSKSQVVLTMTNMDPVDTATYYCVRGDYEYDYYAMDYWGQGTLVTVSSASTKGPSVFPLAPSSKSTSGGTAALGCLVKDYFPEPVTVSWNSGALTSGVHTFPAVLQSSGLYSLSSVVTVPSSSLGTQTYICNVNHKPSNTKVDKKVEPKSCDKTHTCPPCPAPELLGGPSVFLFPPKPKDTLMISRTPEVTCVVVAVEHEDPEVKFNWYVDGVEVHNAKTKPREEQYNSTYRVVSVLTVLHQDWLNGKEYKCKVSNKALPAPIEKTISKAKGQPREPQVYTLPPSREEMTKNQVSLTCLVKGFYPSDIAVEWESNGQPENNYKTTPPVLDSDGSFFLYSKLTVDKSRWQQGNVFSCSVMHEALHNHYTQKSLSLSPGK
light: EIVLTQSPATLSLSPGERATLSCRASSSVSYMHWYQQKPGQAPRPLIYATSNRATGIPARFSGSGSGTDYTLTISSLEPEDFAVYYCHQWSSNPYTFGQGTKLEIKRTVAAPSVFIFPPSDEQLKSGTASVVCLLNNFYPREAKVQWKVDNALQSGNSQESVTEQDSKDSTYSLSSTLTLSKADYEKHKVYACEVTHQGLSSPVTKSFNRGEC
notes: as for B1
B6: the “avidity (FcRn pH6)” value in [13] came to 11.9 nM. The Kd in [1] worked out at 26.7 µM; in experiment [2] it was 173 µM; in experiment [3], 157 µM; in experiment [21], 0.415 µM. The binding result in [4], in experiment [5] and in experiment [15] was “no binding” each time.

B7: humanised 2.8.6 hIgG1 D265A G236D (antibody)
heavy: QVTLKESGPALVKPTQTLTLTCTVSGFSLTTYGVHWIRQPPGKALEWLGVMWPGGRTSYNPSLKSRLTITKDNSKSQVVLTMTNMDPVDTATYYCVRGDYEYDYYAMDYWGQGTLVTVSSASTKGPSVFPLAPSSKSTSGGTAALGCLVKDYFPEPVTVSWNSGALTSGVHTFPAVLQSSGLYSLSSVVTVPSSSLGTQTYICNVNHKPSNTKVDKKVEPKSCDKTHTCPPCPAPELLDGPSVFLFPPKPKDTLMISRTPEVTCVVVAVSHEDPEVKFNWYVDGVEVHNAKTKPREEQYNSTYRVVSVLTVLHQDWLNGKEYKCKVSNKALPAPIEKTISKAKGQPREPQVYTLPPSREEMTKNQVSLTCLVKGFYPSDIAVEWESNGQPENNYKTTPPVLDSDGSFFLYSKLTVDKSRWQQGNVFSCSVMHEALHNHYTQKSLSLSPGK
light: EIVLTQSPATLSLSPGERATLSCRASSSVSYMHWYQQKPGQAPRPLIYATSNRATGIPARFSGSGSGTDYTLTISSLEPEDFAVYYCHQWSSNPYTFGQGTKLEIKRTVAAPSVFIFPPSDEQLKSGTASVVCLLNNFYPREAKVQWKVDNALQSGNSQESVTEQDSKDSTYSLSSTLTLSKADYEKHKVYACEVTHQGLSSPVTKSFNRGEC
notes: as for B1
Turning to B7, the “avidity (FcRn pH6)” value in experiment [13] is 14 nM. The binding result in [14], in experiment [2], in [4], in [5] and in [15] was “no binding” in each case. Further, the Kd was determined as 91.4 µM in experiment [1] and 748 µM in [22].

These data come from patent US20230235058A1 (OXFORD UNIVERSITY INNOVATION, published 2023).
